Assay results taken from patent US20140271457A1 (AbbVie / Abbott, published 2014).

Target: Recombinant Human IL-13 (human, UniProt P35225 35-146, limits assumed)
Assay: cell-based or functional assay

Chain of Recombinant Human IL-13 (P35225 35-146 limits assumed): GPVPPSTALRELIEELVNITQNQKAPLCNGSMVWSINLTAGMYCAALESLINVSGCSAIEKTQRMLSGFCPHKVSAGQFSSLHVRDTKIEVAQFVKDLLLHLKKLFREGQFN

Binder | IL-13 Neutralization Assay IC50 [nM]
DVD2791 (bispecific antibody, human IgG1, kappa) heavy: not shown light: DIQMTQSPSSLSASVGDRVTISCRASQDIRNYLNWYQQKPGKAPKLLIFYTSKLHSGVPSRFSGSGSGTDYTLTISSLQPEDIATYYCQQGLTPPLTFGGGTKVEIKRTVAAPSVFIFPPDIQMTQSPSSLSASVGDRVTITCRASQDISQYLNWYQQKPGKAPKLLIYYTSRLQSGVPSRFSGSGSGTDFTLTISSLQPEDFATYFCQQGNTWPPTFGQGTKLEIKRTVAAPSVFIFPPSDEQLKSGTASVVCLLNNFYPREAKVQWKVDNALQSGNSQESVTEQDSKDSTYSLSSTLTLSKADYEKHKVYACEVTHQGLSSPVTKSFNRGEC | 0.245
DVD2789 (bispecific antibody, human IgG1, kappa) heavy: not shown light: DIQMTQSPSSLSASVGDRVTISCRASQDIRNYLNWYQQKPGKAPKLLIFYTSKLHSGVPSRFSGSGSGTDYTLTISSLQPEDIATYYCQQGLTPPLTFGGGTKVEIKRTVAAPDIQMTQSPSSLSASVGDRVTITCRASQDISQYLNWYQQKPGKAPKLLIYYTSRLQSGVPSRFSGSGSGTDFTLTISSLQPEDFATYFCQQGNTWPPTFGQGTKLEIKRTVAAPSVFIFPPSDEQLKSGTASVVCLLNNFYPREAKVQWKVDNALQSGNSQESVTEQDSKDSTYSLSSTLTLSKADYEKHKVYACEVTHQGLSSPVTKSFNRGEC | 0.078
DVD2792 (bispecific antibody, human IgG1, kappa) heavy: not shown light: DIQMTQSPSSLSASVGDRVTISCRASQDIRNYLNWYQQKPGKAPKLLIFYTSKLHSGVPSRFSGSGSGTDYTLTISSLQPEDIATYYCQQGLTPPLTFGGGTKVEIKRTVAAPDIQMTQSPSSLSASVGDRVTITCRASQDISQYLNWYQQKPGKAPKLLIYYTSRLQSGVPSRFSGSGSGTDFTLTISSLQPEDFATYFCQQGNTWPPTFGQGTKLEIKRTVAAPSVFIFPPSDEQLKSGTASVVCLLNNFYPREAKVQWKVDNALQSGNSQESVTEQDSKDSTYSLSSTLTLSKADYEKHKVYACEVTHQGLSSPVTKSFNRGEC | 0.361
DVD2692 (bispecific antibody, human IgG1, kappa) heavy: not shown light: DIQMTQSPSSLSASVGDRVTISCRASQDIRNYLNWYQQKPGKAPKLLIFYTSKLHSGVPSRFSGSGSGTDYTLTISSLQPEDIATYYCQQGLTPPLTFGGGTKVEIKRTVAAPDIQMTQSPSSLSASVGDRVTITCRASQLVSSAVAWYQQKPGKAPKLLIYWASARHTGVPSRFSGSGSGTDFTLTISSLQPEDFATYYCQQHYKTPFTFGQGTKLEIKRTVAAPSVFIFPPSDEQLKSGTASVVCLLNNFYPREAKVQWKVDNALQSGNSQESVTEQDSKDSTYSLSSTLTLSKADYEKHKVYACEVTHQGLSSPVTKSFNRGEC | 0.131
DVD2739 (bispecific antibody, human IgG1, kappa) heavy: not shown light: DIQMTQSPSSLSASVGDRVTISCRASQDIRNYLNWYQQKPGKAPKLLIFYTSKLHSGVPSRFSGSGSGTDYTLTISSLQPEDIATYYCQQGLTPPLTFGGGTKVEIKRTVAAPDIQMTQSPSSLSASVGDRVTITCKASQLVSSAVAWYQQKPGKAPKLLIYWASTLHTGVPSRFSGSGSGTDFTLTISSLQPEDFATYYCQQHYRTPFTFGQGTKLEIKRTVAAPSVFIFPPSDEQLKSGTASVVCLLNNFYPREAKVQWKVDNALQSGNSQESVTEQDSKDSTYSLSSTLTLSKADYEKHKVYACEVTHQGLSSPVTKSFNRGEC | 0.132
DVD2742 (bispecific antibody, human IgG1, kappa) heavy: not shown light: DIQMTQSPSSLSASVGDRVTISCRASQDIRNYLNWYQQKPGKAPKLLIFYTSKLHSGVPSRFSGSGSGTDYTLTISSLQPEDIATYYCQQGLTPPLTFGGGTKVEIKRTVAAPDIQMTQSPSSLSASVGDRVTITCKASQLVSSAVAWYQQKPGKAPKLLIYWASTLHTGVPSRFSGSGSGTDFTLTISSLQPEDFATYYCQQHYRTPFTFGQGTKLEIKRTVAAPSVFIFPPSDEQLKSGTASVVCLLNNFYPREAKVQWKVDNALQSGNSQESVTEQDSKDSTYSLSSTLTLSKADYEKHKVYACEVTHQGLSSPVTKSFNRGEC | 0.064
DVD2738 (bispecific antibody, human IgG1, kappa) heavy: not shown light: DIQMTQSPSSLSASVGDRVTISCRASQDIRNYLNWYQQKPGKAPKLLIFYTSKLHSGVPSRFSGSGSGTDYTLTISSLQPEDIATYYCQQGLTPPLTFGGGTKVEIKRGGSGGGGSGDIQMTQSPSSLSASVGDRVTITCKASQLVSSAVAWYQQKPGKAPKLLIYWASTLHTGVPSRFSGSGSGTDFTLTISSLQPEDFATYYCQQHYRTPFTFGQGTKLEIKRTVAAPSVFIFPPSDEQLKSGTASVVCLLNNFYPREAKVQWKVDNALQSGNSQESVTEQDSKDSTYSLSSTLTLSKADYEKHKVYACEVTHQGLSSPVTKSFNRGEC | 0.149
DVD2788 (bispecific antibody, human IgG1, kappa) heavy: not shown light: DIQMTQSPSSLSASVGDRVTISCRASQDIRNYLNWYQQKPGKAPKLLIFYTSKLHSGVPSRFSGSGSGTDYTLTISSLQPEDIATYYCQQGLTPPLTFGGGTKVEIKRGGSGGGGSGDIQMTQSPSSLSASVGDRVTITCRASQDISQYLNWYQQKPGKAPKLLIYYTSRLQSGVPSRFSGSGSGTDFTLTISSLQPEDFATYFCQQGNTWPPTFGQGTKLEIKRTVAAPSVFIFPPSDEQLKSGTASVVCLLNNFYPREAKVQWKVDNALQSGNSQESVTEQDSKDSTYSLSSTLTLSKADYEKHKVYACEVTHQGLSSPVTKSFNRGEC | 0.072
AB398 (antibody, V domains shown) VH: EVQLVQSGAEVKKPGASVKVSCKASGYTFTTYGVSWVRQAPGQGLEWMGEIYPGNYNTYYNEKFRGRVTMTTDTSTSTAYMELRSLRSDDTAVYYCARWRTSYFSDYGYFDYWGQGTTVTVSS VL: DVVMTQSPLSLPVTLGQPASISCRSSQSLVHSHGNTYLHWYQQRPGQSPRLLIYTVSNRFSGVPDRFSGSGSGTDFTLKISRVEAEDVGVYYCSQSTHVPYTFGGGTKVEIKR | 0.068
DVD2691 (bispecific antibody, human IgG1, kappa) heavy: not shown light: DIQMTQSPSSLSASVGDRVTISCRASQDIRNYLNWYQQKPGKAPKLLIFYTSKLHSGVPSRFSGSGSGTDYTLTISSLQPEDIATYYCQQGLTPPLTFGGGTKVEIKRTVAAPSVFIFPPDIQMTQSPSSLSASVGDRVTITCRASQLVSSAVAWYQQKPGKAPKLLIYWASARHTGVPSRFSGSGSGTDFTLTISSLQPEDFATYYCQQHYKTPFTFGQGTKLEIKRTVAAPSVFIFPPSDEQLKSGTASVVCLLNNFYPREAKVQWKVDNALQSGNSQESVTEQDSKDSTYSLSSTLTLSKADYEKHKVYACEVTHQGLSSPVTKSFNRGEC | 0.105
DVD2741 (bispecific antibody, human IgG1, kappa) heavy: not shown light: DIQMTQSPSSLSASVGDRVTISCRASQDIRNYLNWYQQKPGKAPKLLIFYTSKLHSGVPSRFSGSGSGTDYTLTISSLQPEDIATYYCQQGLTPPLTFGGGTKVEIKRTVAAPSVFIFPPDIQMTQSPSSLSASVGDRVTITCKASQLVSSAVAWYQQKPGKAPKLLIYWASTLHTGVPSRFSGSGSGTDFTLTISSLQPEDFATYYCQQHYRTPFTFGQGTKLEIKRTVAAPSVFIFPPSDEQLKSGTASVVCLLNNFYPREAKVQWKVDNALQSGNSQESVTEQDSKDSTYSLSSTLTLSKADYEKHKVYACEVTHQGLSSPVTKSFNRGEC | 0.118
AB397 (antibody, V domains shown) VH: EVTLRESGPGLVKPTQTLTLTCTLYGFSLSTSDMGVDWIRQPPGKGLEWLAHIWWDDVKRYNPALKSRLTISKDTSKNQVVLKLTSVDPVDTATYYCARTVSSGYIYYAMDYWGQGTLVTVSS VL: DIQMTQSPSSLSASVGDRVTISCRASQDIRNYLNWYQQKPGKAPKLLIFYTSKLHSGVPSRFSGSGSGTDYTLTISSLQPEDIATYYCQQGLTPPLTFGGGTKVEIKR | 0.066
